Numbered stars: 1 amine (or outer) side, 2 acyl side, 3 side chain; on linkers, the order of the positions; unused ones are H or OH. Square brackets hold non-standard residues; d marks the D form. Side chains are listed from the residue outwards. Ends that are not written are not given here. * marks the point of attachment. C20 diacid = O=C(O)CCCCCCCCCCCCCCCCCCC(=O)*; γGlu = O=C(O)[C@H](CCC(=O)[*:2])N[*:1]; αMeF = C[C@](N)(Cc1ccccc1)C(=O)O; AEEA = NCCOCCOCC(=O)O; Aib = CC(C)(N)C(=O)O
T1: human GIP receptor (human, UniProt P48546 22-466)
T1 sequence (looked up): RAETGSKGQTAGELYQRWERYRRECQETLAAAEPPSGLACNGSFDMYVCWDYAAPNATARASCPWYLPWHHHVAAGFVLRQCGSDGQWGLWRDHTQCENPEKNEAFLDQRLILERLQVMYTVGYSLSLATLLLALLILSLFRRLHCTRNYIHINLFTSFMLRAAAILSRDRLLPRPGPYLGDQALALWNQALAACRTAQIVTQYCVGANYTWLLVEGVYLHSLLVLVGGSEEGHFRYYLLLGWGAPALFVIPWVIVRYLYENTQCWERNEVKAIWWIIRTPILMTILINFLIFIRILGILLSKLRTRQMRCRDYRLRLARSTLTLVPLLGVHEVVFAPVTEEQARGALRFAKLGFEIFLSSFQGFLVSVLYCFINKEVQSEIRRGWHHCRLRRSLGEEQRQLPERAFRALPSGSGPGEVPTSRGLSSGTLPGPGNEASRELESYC

B1: Example 84 (peptide)
peptide: YXEGTFTSDYSILLDKKAQXAFIXYLIEGGPSSGAPPPS
modifications: Aib2; K17((2-[2-(2-Amino-ethoxy)-ethoxy]-acetyl)2-(γ-Glu)-CO-(CH2)18-CO2H); Aib20; D-Glu24; C-terminal NH2
B2: Example 85 (peptide)
peptide: Y[Aib]EGTFTSDASILLDKK([AEEA-AEEA-γGlu-C20 diacid])AQ[Aib]AFIEYLIEGGPSSGAPPPS-NH2
modifications: N-terminus assumed
SMILES: CC[C@H](C)[C@H](NC(=O)[C@H](CC(C)C)NC(=O)[C@H](Cc1ccc(O)cc1)NC(=O)[C@H](CCC(=O)O)NC(=O)[C@@H](NC(=O)[C@H](Cc1ccccc1)NC(=O)[C@H](C)NC(=O)C(C)(C)NC(=O)[C@H](CCC(N)=O)NC(=O)[C@H](C)NC(=O)[C@H](CCCCNC(=O)COCCOCCNC(=O)COCCOCCNC(=O)CC[C@H](NC(=O)CCCCCCCCCCCCCCCCCCC(=O)O)C(=O)O)NC(=O)[C@H](CCCCN)NC(=O)[C@H](CC(=O)O)NC(=O)[C@H](CC(C)C)NC(=O)[C@H](CC(C)C)NC(=O)[C@@H](NC(=O)[C@H](CO)NC(=O)[C@H](C)NC(=O)[C@H](CC(=O)O)NC(=O)[C@H](CO)NC(=O)[C@@H](NC(=O)[C@H](Cc1ccccc1)NC(=O)[C@@H](NC(=O)CNC(=O)[C@H](CCC(=O)O)NC(=O)C(C)(C)NC(=O)[C@@H](N)Cc1ccc(O)cc1)[C@@H](C)O)[C@@H](C)O)[C@@H](C)CC)[C@@H](C)CC)C(=O)N[C@@H](CCC(=O)O)C(=O)NCC(=O)NCC(=O)N1CCC[C@H]1C(=O)N[C@@H](CO)C(=O)N[C@@H](CO)C(=O)NCC(=O)N[C@@H](C)C(=O)N1CCC[C@H]1C(=O)N1CCC[C@H]1C(=O)N1CCC[C@H]1C(=O)N[C@@H](CO)C(N)=O
B3: Example 86 (peptide)
peptide: Y[Aib]EGTFTSDYSILLDKK([AEEA-AEEA-γGlu-C20 diacid])AQ[Aib]AFIEYLIEAGPSSGAPPPS-NH2
modifications: N-terminus assumed
SMILES: CC[C@H](C)[C@H](NC(=O)[C@H](CC(C)C)NC(=O)[C@H](Cc1ccc(O)cc1)NC(=O)[C@H](CCC(=O)O)NC(=O)[C@@H](NC(=O)[C@H](Cc1ccccc1)NC(=O)[C@H](C)NC(=O)C(C)(C)NC(=O)[C@H](CCC(N)=O)NC(=O)[C@H](C)NC(=O)[C@H](CCCCNC(=O)COCCOCCNC(=O)COCCOCCNC(=O)CC[C@H](NC(=O)CCCCCCCCCCCCCCCCCCC(=O)O)C(=O)O)NC(=O)[C@H](CCCCN)NC(=O)[C@H](CC(=O)O)NC(=O)[C@H](CC(C)C)NC(=O)[C@H](CC(C)C)NC(=O)[C@@H](NC(=O)[C@H](CO)NC(=O)[C@H](Cc1ccc(O)cc1)NC(=O)[C@H](CC(=O)O)NC(=O)[C@H](CO)NC(=O)[C@@H](NC(=O)[C@H](Cc1ccccc1)NC(=O)[C@@H](NC(=O)CNC(=O)[C@H](CCC(=O)O)NC(=O)C(C)(C)NC(=O)[C@@H](N)Cc1ccc(O)cc1)[C@@H](C)O)[C@@H](C)O)[C@@H](C)CC)[C@@H](C)CC)C(=O)N[C@@H](CCC(=O)O)C(=O)N[C@@H](C)C(=O)NCC(=O)N1CCC[C@H]1C(=O)N[C@@H](CO)C(=O)N[C@@H](CO)C(=O)NCC(=O)N[C@@H](C)C(=O)N1CCC[C@H]1C(=O)N1CCC[C@H]1C(=O)N1CCC[C@H]1C(=O)N[C@@H](CO)C(N)=O
B4: Example 88 (peptide)
peptide: YPEGTFTSDYSILLDKK([AEEA-AEEA-γGlu-C20 diacid])AQ[Aib]AFIEYLIEGGPSSGAPPPS-NH2
modifications: N-terminus assumed
SMILES: CC[C@H](C)[C@H](NC(=O)[C@H](CC(C)C)NC(=O)[C@H](Cc1ccc(O)cc1)NC(=O)[C@H](CCC(=O)O)NC(=O)[C@@H](NC(=O)[C@H](Cc1ccccc1)NC(=O)[C@H](C)NC(=O)C(C)(C)NC(=O)[C@H](CCC(N)=O)NC(=O)[C@H](C)NC(=O)[C@H](CCCCNC(=O)COCCOCCNC(=O)COCCOCCNC(=O)CC[C@H](NC(=O)CCCCCCCCCCCCCCCCCCC(=O)O)C(=O)O)NC(=O)[C@H](CCCCN)NC(=O)[C@H](CC(=O)O)NC(=O)[C@H](CC(C)C)NC(=O)[C@H](CC(C)C)NC(=O)[C@@H](NC(=O)[C@H](CO)NC(=O)[C@H](Cc1ccc(O)cc1)NC(=O)[C@H](CC(=O)O)NC(=O)[C@H](CO)NC(=O)[C@@H](NC(=O)[C@H](Cc1ccccc1)NC(=O)[C@@H](NC(=O)CNC(=O)[C@H](CCC(=O)O)NC(=O)[C@@H]1CCCN1C(=O)[C@@H](N)Cc1ccc(O)cc1)[C@@H](C)O)[C@@H](C)O)[C@@H](C)CC)[C@@H](C)CC)C(=O)N[C@@H](CCC(=O)O)C(=O)NCC(=O)NCC(=O)N1CCC[C@H]1C(=O)N[C@@H](CO)C(=O)N[C@@H](CO)C(=O)NCC(=O)N[C@@H](C)C(=O)N1CCC[C@H]1C(=O)N1CCC[C@H]1C(=O)N1CCC[C@H]1C(=O)N[C@@H](CO)C(N)=O
B5: Example 89 (peptide)
peptide: YXXGTFTSDYSILLDKKAQXAFIEYLIEGGPSSGAPPPS
modifications: Aib2; Aad3; K17((2-[2-(2-Amino-ethoxy)-ethoxy]-acetyl)2-(γ-Glu)-CO-(CH2)18-CO2H); Aib20; C-terminal NH2
B6: Example 90 (peptide)
peptide: Y[Aib]NGTFTSDYSILLDKK([AEEA-AEEA-γGlu-C20 diacid])AQ[Aib]AFIEYLIEGGPSSGAPPPS-NH2
modifications: N-terminus assumed
SMILES: CC[C@H](C)[C@H](NC(=O)[C@H](CC(C)C)NC(=O)[C@H](Cc1ccc(O)cc1)NC(=O)[C@H](CCC(=O)O)NC(=O)[C@@H](NC(=O)[C@H](Cc1ccccc1)NC(=O)[C@H](C)NC(=O)C(C)(C)NC(=O)[C@H](CCC(N)=O)NC(=O)[C@H](C)NC(=O)[C@H](CCCCNC(=O)COCCOCCNC(=O)COCCOCCNC(=O)CC[C@H](NC(=O)CCCCCCCCCCCCCCCCCCC(=O)O)C(=O)O)NC(=O)[C@H](CCCCN)NC(=O)[C@H](CC(=O)O)NC(=O)[C@H](CC(C)C)NC(=O)[C@H](CC(C)C)NC(=O)[C@@H](NC(=O)[C@H](CO)NC(=O)[C@H](Cc1ccc(O)cc1)NC(=O)[C@H](CC(=O)O)NC(=O)[C@H](CO)NC(=O)[C@@H](NC(=O)[C@H](Cc1ccccc1)NC(=O)[C@@H](NC(=O)CNC(=O)[C@H](CC(N)=O)NC(=O)C(C)(C)NC(=O)[C@@H](N)Cc1ccc(O)cc1)[C@@H](C)O)[C@@H](C)O)[C@@H](C)CC)[C@@H](C)CC)C(=O)N[C@@H](CCC(=O)O)C(=O)NCC(=O)NCC(=O)N1CCC[C@H]1C(=O)N[C@@H](CO)C(=O)N[C@@H](CO)C(=O)NCC(=O)N[C@@H](C)C(=O)N1CCC[C@H]1C(=O)N1CCC[C@H]1C(=O)N1CCC[C@H]1C(=O)N[C@@H](CO)C(N)=O
B7: Example 91 (peptide)
peptide: YXXGTFTSDYSILLDKKAQXAFIEYLIEGGPSSGAPPPS
modifications: Aib2; γ-Glu3; K17((2-[2-(2-Amino-ethoxy)-ethoxy]-acetyl)2-(γ-Glu)-CO-(CH2)18-CO2H); Aib20; C-terminal NH2
B8: Example 92 (peptide)
peptide: Y[Aib]EGT[αMeF]TSDK([AEEA-AEEA-γGlu-C20 diacid])SILLDKIAQ[Aib]AFIEYLIEGG-NH2
modifications: N-terminus assumed
SMILES: CC[C@H](C)[C@H](NC(=O)[C@H](CCCCN)NC(=O)[C@H](CC(=O)O)NC(=O)[C@H](CC(C)C)NC(=O)[C@H](CC(C)C)NC(=O)[C@@H](NC(=O)[C@H](CO)NC(=O)[C@H](CCCCNC(=O)COCCOCCNC(=O)COCCOCCNC(=O)CC[C@H](NC(=O)CCCCCCCCCCCCCCCCCCC(=O)O)C(=O)O)NC(=O)[C@H](CC(=O)O)NC(=O)[C@H](CO)NC(=O)[C@@H](NC(=O)[C@](C)(Cc1ccccc1)NC(=O)[C@@H](NC(=O)CNC(=O)[C@H](CCC(=O)O)NC(=O)C(C)(C)NC(=O)[C@@H](N)Cc1ccc(O)cc1)[C@@H](C)O)[C@@H](C)O)[C@@H](C)CC)C(=O)N[C@@H](C)C(=O)N[C@@H](CCC(N)=O)C(=O)NC(C)(C)C(=O)N[C@@H](C)C(=O)N[C@@H](Cc1ccccc1)C(=O)N[C@H](C(=O)N[C@@H](CCC(=O)O)C(=O)N[C@@H](Cc1ccc(O)cc1)C(=O)N[C@@H](CC(C)C)C(=O)N[C@H](C(=O)N[C@@H](CCC(=O)O)C(=O)NCC(=O)NCC(N)=O)[C@@H](C)CC)[C@@H](C)CC
B9: Example 5 (peptide)
peptide: YXEGTXTSDVSIXLDXKAQXEFIXXLIEGGPSSGAPPPS
modifications: Aib2; αMeF(2F)6; αMeL13; Orn16; K17((2-[2-(2-Amino-ethoxy)-ethoxy]-acetyl)2-(γ-Glu)-CO-(CH2)16-CO2H); Aib20; D-Glu24; αMeY25; C-terminal NH2

Experiments:
[1] = target: T1, human GIP receptor; experiment: cell-based or functional assay
[2] = target: human GLP-1 receptor (human, UniProt P43220 24-463); experiment: cell-based or functional assay

| Binder | hGIPR cAMP EC50 ratio [1] | hGIPR cAMP Rel EC50 [1] [nM] | hGLP1R cAMP EC50 ratio [2] | hGLP1R cAMP Rel EC50 [2] [nM] |
| --- | --- | --- | --- | --- |
| B1 | 1.59 | 0.0915 | 0.173 | 0.374 |
| B2 | 0.111 | 1.67 | 1.13 | 0.0518 |
| B3 | 3.29 | 0.0452 | 0.243 | 0.271 |
| B4 | 0.392 | 0.475 | 0.0918 | 0.64 |
| B5 | 1.57 | 0.119 | 0.175 | 0.335 |
| B6 | 5.17 | 0.0361 | 0.11 | 0.532 |
| B7 | 0.0103 | 19.2 | < 1.08e-05 | > 5000 |
| B8 | 0.546 | 0.338 | 0.258 | 0.257 |
| B9 | 6.27 | 0.0309 | 2.69 | 0.0164 |

Source: US20220048967A1 (published 2022)
